According to US20150285801:

System: GST-topo I
Sequence (chain, as listed by the source): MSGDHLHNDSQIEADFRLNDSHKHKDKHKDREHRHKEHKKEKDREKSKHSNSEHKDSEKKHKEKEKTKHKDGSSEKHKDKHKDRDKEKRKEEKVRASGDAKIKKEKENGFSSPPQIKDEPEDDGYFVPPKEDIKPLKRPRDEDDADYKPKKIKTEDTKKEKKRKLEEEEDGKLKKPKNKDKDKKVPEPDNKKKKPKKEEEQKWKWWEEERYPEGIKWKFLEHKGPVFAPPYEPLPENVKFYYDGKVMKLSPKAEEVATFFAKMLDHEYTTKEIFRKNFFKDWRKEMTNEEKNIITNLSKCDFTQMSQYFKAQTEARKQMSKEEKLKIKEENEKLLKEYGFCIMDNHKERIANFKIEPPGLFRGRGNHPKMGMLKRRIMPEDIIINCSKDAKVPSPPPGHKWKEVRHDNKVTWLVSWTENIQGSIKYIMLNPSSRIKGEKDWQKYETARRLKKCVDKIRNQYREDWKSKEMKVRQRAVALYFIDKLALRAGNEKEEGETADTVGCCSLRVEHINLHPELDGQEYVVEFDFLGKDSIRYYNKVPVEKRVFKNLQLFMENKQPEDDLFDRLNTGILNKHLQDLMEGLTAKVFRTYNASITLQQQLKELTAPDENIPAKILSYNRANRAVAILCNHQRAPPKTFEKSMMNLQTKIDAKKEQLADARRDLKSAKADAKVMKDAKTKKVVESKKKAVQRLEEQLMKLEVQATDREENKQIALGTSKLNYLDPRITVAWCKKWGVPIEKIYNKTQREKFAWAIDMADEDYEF

## BRCA1/BARD1 (E3)
  in vitro ubiquitination, immunoblot with anti-ubiquitin: topo I is ubiquitinated by BRCA1
